{"source": "patent US7880021B2", "about": "“Compounds and kits for the detection and the quantification of cell apoptosis” (Centre National de la Recherche Scientifique (CNRS), priority 2005, dated 2011)", "key": {"[1]": {"test_system": "CEM T cells", "assay": "Determination of hypodiploid DNA with PI by flow cytometry", "format": "cell-based, human", "details": "actinomycin D 0.5 μg/ml for 18 h; mean±SEM", "description": "(§1) Human lymphoid CEM T cells were cultured in X-vivo 15 medium (Cambrex, France) at 37° C. in humidified 5% CO2 atmosphere. Cell viability was checked by trypan blue exclusion. Cells were seeded at 5×10^5 cells/ml in the presence or absence of actinomycin D (0.5 μg/ml) for 18 h. Cells were pelleted by centrifugation at 1500 rpm for 5 min and resuspended at 1×10^6 cells/ml in X-vivo 15 medium for experiments.\nTo verify the proportion of apoptotic cells, measurements of hypodiploid DNA with PI by flow cytometry have been performed. After apoptotic treatment, cells were harvested and numbered. Concentration in a 70% ethanol solution in H2O was adjusted to 5×10^5 cells/ml and fixation was allowed to proceed for at least 1 h at 4° C. Cells were washed once in Hank's balanced salt solution (HBSS) before resuspension in HBSS containing RNAse (0.5 mg/ml), PI (0.1 mg/ml) and incubation for 15 min at room temperature in the dark. Samples were analysed by flow cytometry using the CELLQuest software (Becton Dickinson, San Jose, Calif.). Under these conditions, the content of hypodiploid DNA in CEM T cells was 30±2% (mean±SEM)."}, "[2]": {"test_system": "T lymphocytes", "assay": "Laser scanning confocal ratiometric imaging of T lymphocytes", "format": "cell-based", "description": "FIG. 9: Laser scanning confocal imaging of T lymphocytes stained with annexin V-FITC (a) and F2N12S (b and c). Combination of transmission and fluorescence images of cells treated with actinomycin D for 18 hours (please complete this sentence). […] Due to their low binding to annexin V, normal cells are not visualized in the fluorescence images. (b and c) Ratiometric images of normal (b) and actinomycin D-treated (c) cells stained with 0.2 μM F2N12S. […] The size of the images is 60×73.1 μm.\nFIG. 10: Time-series of confocal fluorescence ratiometric images of actinomycin D-treated T lymphocytes stained with F2N12S. The cells were treated with actinomycin D for 18 hours and then, incubated with the probe (0.2 μM) for 5 min. Images were recorded at 1 min (a), 10 min (b) and 20 min (c) post incubation. […] The size of the images is 60×73.1 μm.\nFor collecting cell images, a Laser Scanning Confocal Imaging System MRC-1024 (Bio-Rad) was used. Cells in chambered cover glass were prepared by following the preparation procedure described above. The 442 nm line of a HeCd laser was used as the excitation light source. Emission was collected by using two filters: 485/30 for the N* band and 585LP for the T* band. Collected images were analyzed by the Amira 3.0 software.\nTo further compare F2N12S and annexinV-derived probes, two-color ratiometric images of F2N12S-labeled cells undergoing apoptosis were recorded by laser scanning confocal microscopy and compared with intensity based images obtained using annexin V-FITC. […] Moreover, the fluorescence intensity of apoptotic cells varies considerably from cell to cell. These differences are difficult to interpret since the intensity depends on the probe concentration as well as on the size and confluence of the cells. […] According to our spectroscopy and flow cytometry data, the latter cells are apoptotic. […] Thus, unlike annexin V-FITC, these probes provide an absolute parameter, the intensity ratio, which can be calibrated, and can characterize the level of apoptosis independently of the probe/cell concentration and the excitation light intensity. In addition, the inventors have observed that in normal cells and cells on the initial steps of apoptosis, the T*/N* intensity ratio is not evenly distributed within the plasma membrane of a given cell. This may indicate an inhomogeneous lipid composition of their plasma membranes that is likely related to the presence of lipid domains.\nThe inventors also follow apoptotic transformation of the plasma membrane as a function of time. Normal and actinomycin D-treated cells were stained with the corresponding probe and the fluorescence images were subsequently recorded during 20 min. […]"}, "[3]": {"test_system": "T lymphoblastoid cells", "assay": "Flow cytometry analysis with annexin V-FITC, PI and F2N12S", "format": "cell-based, human", "source_text": "FIG. 6: Flow cytometry analysis of T lymphoblastoid cells treated by actinomycin D. Cells were stained by annexin V-FITC, PI and F2N12S. In (a), Annexin V-FITC and PI were selectively excited at 488 nm. Cells are sorted into living, dead and apoptotic cell populations. In (b), F2N12S is selectively excited at 407 nm. Living cells are discriminated from apoptotic and necrotic cells. In (c), the PI fluorescence intensities are plotted versus the T*/N* ratio of F2N12S. Living cells are in green, apoptotic cells are in cyan and dead cells are in orange. In (d), the populations sorted using the F2N12S/PI couple were colored according to their response with the annexin V/PI couple. The wavelengths of maximal transmission and bandwidths of used filters are indicated in brackets.\nFIG. 7: Comparison of the intensiometric response of annexin V-FITC (a) with the ratiometric fluorescence response of F2N12S (b). Living, dead and apoptotic cells were identified as described in FIG. 6, by using either the annexin V-FITC/PI (a) or the F2N12S/PI (b) couple of dyes.\nFIG. 8: Comparison of the response of annexin V-FITC and F2N12S on non-treated T lymphoblastoid cells stained by annexin V-FITC, PI and F2N12S. In (a), annexin V-FITC and PI were selectively excited at 488 nm. In (b), F2N12S is selectively excited at 407 nm. Cells are sorted into living and dead cell populations.\nas §1\nFor the validation of F2N12S in cell cytometry, we used a FASCARIA™ (cell sorter) (BD Biosciences, CA, USA) equipped with an argon laser (488 nm) and a diode laser (407 nm) and emission filters DF30, DF42 and DF20 centered at 530 nm, 585 nm and 610 nm, respectively. The optical pathways corresponding to the argon laser and to the diode laser are independent. Data were analyzed using the FACSDIVA™ (cell sorter) Software (BD Biosciences). The granulation, size and fluorescence intensity were recorded at a rate of ˜1000 cells per second.\nT lymphoblastoid cells were treated with actinomycin D and labeled simultaneously by FITC-labeled annexin V, propidium iodide (PI) and F2N12S. […] The emissions of FITC and PI were collected in the spectral regions of 515-545 nm and 600-620 nm, respectively. […] The emission light in this case was collected in two spectral regions: at 515-545 nm to monitor the emission of the N* band and 564-606 nm to collect the emission of the T* band (FIG. 6b). […] The second one is characterized by a high N*/T* intensity ratio (shown in red) and can be assigned to apoptotic and dead cells.\nThe probe of the invention F2N12S has been combined with PI and the fluorescence intensities of PI have been represented as a function of the T*/N* ratio of F2N12S (FIG. 6c). In this case, the populations of apoptotic and dead cells are clearly discriminated by using the differences in the PI intensities. […] This conclusion was further strengthened when the populations discriminated by the F2N12S/PI couple were colored according to their response with the annexin V-FITC/PI couple (FIG. 6d)."}, "[4]": {"details": "actinomycin D-treated cells, probe combined with PI"}}, "note": "Numbered stars: 1 amine (or outer) side, 2 acyl side, 3 side chain; on linkers, the order of the positions; unused ones are H or OH. Bridge positions count the residues as written; N and C are the ends. Square brackets hold non-standard residues; d marks the D form. Peptide text beside a SMILES is read from it. I, II: the chains in the order shown. Actinocin(9to1) = Cc1c2oc3c(C)ccc(C(=O)[*:1])c3nc-2c(C(=O)[*:2])c(N)c1=O; NMeV = CN[C@H](C(=O)O)C(C)C; Sar = CNCC(=O)O", "data": [{"molecule": "Cc1c2oc3c(C)ccc(C(=O)N[C@@H]4C(=O)N[C@H](C(C)C)C(=O)N5CCC[C@H]5C(=O)N(C)CC(=O)N(C)[C@@H](C(C)C)C(=O)O[C@@H]4C)c3nc-2c(C(=O)N[C@@H]2C(=O)N[C@H](C(C)C)C(=O)N3CCC[C@H]3C(=O)N(C)CC(=O)N(C)[C@@H](C(C)C)C(=O)O[C@@H]2C)c(N)c1=O", "note": "[actinomycin D, Actinomycin D] (I: T[dV]P[Sar][NMeV] / II: T[dV]P[Sar][NMeV]; ester I:1-I:C, II:1-II:C; linker I:N-II:N via Actinocin(9to1))", "values": [{"measurement": "content of hypodiploid DNA", "setting": "[1]", "value": "30±2", "unit": "%"}]}, {"molecule": "annexin V-FITC: Annexin V labelled with fluorescein isothiocyanate, kit from Immunotech; reference apoptosis marker (protein, UniProt P08758 2-320, looked up, FITC label) Annexin A5: AQVLRGTVTDFPGFDERADAETLRKAMKGLGTDEESILTLLTSRSNAQRQEISAAFKTLFGRDLLDDLKSELTGKFEKLIVALMKPSRLYDAYELKHALKGAGTNEKVLTEIIASRTPEELRAIKQVYEEEYGSSLEDDVVGDTSGYYQRMLVVLLQANRDPDAGIDEAQVEQDAQALFQAGELKWGTDEEKFITIFGTRSVSHLRKVFDKYMTISGFQIEETIDRETSGNLEQLLLAVVKSIRSIPAYLAETLYYAMKGAGTDDHTLIRVMVSRSEIDLFNIRKEFRKNFATSLYSMIKGDTSGDYKKALLLLCGEDD", "values": [{"measurement": "time-dependent change of the fluorescence images", "setting": "[2]; actinomycin D-treated cells, images recorded during 20 min", "value": "not possible to detect any time-dependent changes"}, {"measurement": "which cells are stained in fluorescence images", "setting": "[2]; normal and actinomycin D-treated cells", "value": "labels only apoptotic and necrotic cells"}, {"measurement": "percentage of apoptotic cells", "setting": "[3]; [4]", "value": 18, "unit": "%"}, {"measurement": "percentage of dead cells", "setting": "[3]; [4]", "value": 49, "unit": "%"}, {"measurement": "percentage of living cells", "setting": "[3]; [4]", "value": 33, "unit": "%"}, {"measurement": "percentage of dead cells", "setting": "[3]; non-treated T lymphoblastoid cells", "value": 5, "unit": "%"}]}]}
